The results in this text go back to patent publication US20210292423A1.

In test [1] the target is Macaca fascicularis CD3ε/δ-Fc fusion protein (Macaca fascicularis) (UniProt Q95LI8). As to the kind of experiment: SPR Biacore, Fab.
Test [2] shares this target. Briefly: SPR Biacore, ratio against human CD3εδ. Background: In SPR one partner is held on a chip, and binding of the other changes the refractive index at the surface.
The target is the same in test [3]. Briefly: SPR single point, hybridoma supernatant.
For test [4], the target named is human CD123 (IL3RA) on cells (human) (UniProt P26951). Briefly: cell-based or functional assay.
The target is the same in test [5]. As to the kind of experiment: flow cytometry, TF-1 cells, 3 µg antibody. On the technique in general: In flow cytometry, cells or beads pass a laser one at a time.
Test [6] shares this target. Briefly: flow cytometry, THP-1 cells, 3 µg antibody.

For orientation: Kd means the free concentration of one partner at which half of the binding sites on the other are occupied at equilibrium, for simple one-to-one binding. High values mean lower affinity, low ones higher affinity. The term koff denotes a measure of how fast the partners let go of each other. The low end stands for slow dissociation, the high end for fast dissociation. As a reminder, the kon is the rate constant with which the complex forms. A high value points to faster complex formation.

Sequence of human CD123 (IL3RA) on cells (human) (P26951 19-378): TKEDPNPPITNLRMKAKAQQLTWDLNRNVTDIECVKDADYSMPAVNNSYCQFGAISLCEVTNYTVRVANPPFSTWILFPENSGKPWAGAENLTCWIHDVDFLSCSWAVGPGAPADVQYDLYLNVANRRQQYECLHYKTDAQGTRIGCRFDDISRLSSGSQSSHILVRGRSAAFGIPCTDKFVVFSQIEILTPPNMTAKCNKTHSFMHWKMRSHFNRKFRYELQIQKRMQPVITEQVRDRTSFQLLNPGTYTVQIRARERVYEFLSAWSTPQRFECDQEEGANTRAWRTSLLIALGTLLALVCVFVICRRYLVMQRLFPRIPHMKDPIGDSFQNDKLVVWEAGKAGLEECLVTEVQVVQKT
Sequence of Macaca fascicularis CD3ε/δ-Fc fusion protein (Macaca fascicularis) (chain, as listed by the source mutant, chain 1 of 2): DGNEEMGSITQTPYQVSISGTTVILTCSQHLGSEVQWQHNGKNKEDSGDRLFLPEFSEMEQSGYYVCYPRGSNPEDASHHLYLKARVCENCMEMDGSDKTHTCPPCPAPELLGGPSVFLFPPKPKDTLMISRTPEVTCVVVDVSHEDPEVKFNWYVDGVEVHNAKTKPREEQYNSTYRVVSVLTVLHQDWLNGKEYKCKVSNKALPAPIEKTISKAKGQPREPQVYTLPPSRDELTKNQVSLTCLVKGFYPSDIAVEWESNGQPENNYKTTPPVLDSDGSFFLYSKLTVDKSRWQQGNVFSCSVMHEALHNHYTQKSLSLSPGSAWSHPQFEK
Sequence of Macaca fascicularis CD3ε/δ-Fc fusion protein (Macaca fascicularis) (Q95LI8 22-105, stated change not applied, chain 2 of 2): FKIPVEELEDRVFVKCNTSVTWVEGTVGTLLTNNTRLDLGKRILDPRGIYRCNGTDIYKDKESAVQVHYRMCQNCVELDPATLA

B1: humanized 4B4 Fab 4B4_11 (VL1_CM3, VH6_BM2) (Fab, V domains shown)
VH: QVQLVESGGRVVQPGRSLRLTCAASGFTFSNAWMHWVRQAPGKQLEWVAQIKARSNNYATYYAESVKGRFTISRDDSKSTIYLQMNSLRAEDTAVYYCRGTYYASKPFDYWGQGTTVTVSS
VL: DVVMTQSPLSLSVTLGQPVSISCRSSQSLVHDNANTYLSWSLQRPGQSPRVLIYKVSNRFSGVPDRFSGSGSGTDFTLKISRVEAEDVGVYYCGQGTQYPFTFGSGTKLEIK
In test [1], B1 displayed a Kd of 20.4 nM, an off-rate constant (koff) of 0.00486 s⁻¹ and a kon of 238000 M⁻¹ s⁻¹.

B2: 12D2-E5 Fab (Fab, V domains shown)
VH: EVKLVESGGGLVQPGRSLRLSCAASGFNFYAYWMGWVRQAPGKGLEWIGEIKKDGTTINYTPSLKDRFTISRDNAQNTLYLQMTKLGSEDTALYYCAREERDGYFDYWGQGVMVTVSS
VL: QFVLTQPNSVSTNLGSTVKLSCKRSTGNIGSNYVNWYQQHEGRSPTTMIYRDDKRPDGVPDRFSGSIDRSSNSALLTINNVQTEDEADYFCQSYSSGIVFGGGTKLTVL
In the case of B2, the Ratio KD(cy)/KD(hu) in test [2] came out at 4.

B3: 12D2-E5 anti-CD3 antibody (hybridoma supernatant) (antibody, V domains shown)
VH: EVKLVESGGGLVQPGRSLRLSCAASGFNFYAYWMGWVRQAPGKGLEWIGEIKKDGTTINYTPSLKDRFTISRDNAQNTLYLQMTKLGSEDTALYYCAREERDGYFDYWGQGVMVTVSS
VL: QFVLTQPNSVSTNLGSTVKLSCKRSTGNIGSNYVNWYQQHEGRSPTTMIYRDDKRPDGVPDRFSGSIDRSSNSALLTINNVQTEDEADYFCQSYSSGIVFGGGTKLTVL
For B3, the RU at 25 nM in test [3] was determined as 5 RU.

B4: CODV-Fab 7G3 × OKT3 (bispecific antibody, part only; not given: OKT3 arm, linkers, constant domains, part only)
light, part: DFVMTQSPSSLTVTAGEKVTMSCKSSQSLLNSGNQKNYLTWYLQKPGQPPKLLIYWASTRESGVPDRFTGSGSGTDFTLTISSVQAEDLAVYYCQNDYSYPYTFGGGTKLEIK
heavy, part: EVQLQQSGPELVKPGASVKMSCKASGYTFTDYYMKWVKQSHGKSLEWIGDIIPSNGATFYNQKFKGKATLTVDRSSSTAYMHLNSLTSEDSAVYYCTRSHLLRASWFAYWGQGTLVTVSA
In test [4], B4 yielded an Activity EC50 [ng/ml], cytotoxic assay on THP-1 with human T cells of 16 ng/mL.

B5: CODV-Fab BFX-9F6-G3 × CD3 (bispecific antibody, part only; not given: anti-CD3 arm, linkers, constant domains, V domains shown, not shown: another chain or arm of the molecule; a dimerising Fc or GST; small tags and cut ends)
VL: DIQMTQSPASLSASLGETVTIECRPSEDIHSNVAWYQQKPGNSPQLLIYDASNLADGVPSRFSGSGSGTQYSLKINSLQSEDVASYFCHQYNIYPYTFGSGTKLELK
VH: QVQLQESGPTLVKPGDSVKMSCKASGYTFTDYIIHWVKQSHGKSLEWIGYINPYSDGTNYNEKFKSKATLTVDKSTSTAYMEFSRLTSEDSAIYFCALNYGSYYAMDAWGQGTSVTVSS
For the molecule B5, the EC50 [ng/ml] geomean, cytotoxic assay on THP-1 in test [4] was 13.9 ng/mL. Moreover, the % FITC positive Cells was determined as 60.7% in test [5] and 99.7% in test [6].

B6: 5B1-G2 anti-CD3 antibody (hybridoma supernatant) (antibody, V domains shown)
VH: EVQVVETGGSLVQPGKSLKLTCATSGFSFSNAWMHWVRQSPEKQLEWVAQIKDKANNYATYYAESVKGRFTISRDDSKGSIYLQMNSLKEEDTAVYYCRGLYYGLFPSDYWGQGVMVTVSS
VL: DVVMTQTPVSLSVSLGGQVSISCRSSQSLVHNNGNTYLSWYLLKPGQSPQLLIYKVSNRFSGISDRFSGGGSGTDFTLKISRLEPDDLGIYYCGQGTQYPFTFGSGTKLEIK
Molecule B6 had an RU at 25 nM in test [3] of 0.5 RU.

B7: 5B1-G2 Fab (Fab, V domains shown)
VH: EVQVVETGGSLVQPGKSLKLTCATSGFSFSNAWMHWVRQSPEKQLEWVAQIKDKANNYATYYAESVKGRFTISRDDSKGSIYLQMNSLKEEDTAVYYCRGLYYGLFPSDYWGQGVMVTVSS
VL: DVVMTQTPVSLSVSLGGQVSISCRSSQSLVHNNGNTYLSWYLLKPGQSPQLLIYKVSNRFSGISDRFSGGGSGTDFTLKISRLEPDDLGIYYCGQGTQYPFTFGSGTKLEIK
Consider B7, for which the Ratio KD(cy)/KD(hu) in test [2] was 1.

B8: CODV-Fab BFX-3E3-D3 × CD3 (bispecific antibody, part only; not given: CD3 arm, linkers, constant domains, part only)
light, part: QFVLTQPNSVSTNLGSTVKLSCKRNTGNIGSNYVNWYQQHEGRSPTTMIYRDDKRPDGVPDRFSGSIDRSSNSALLTINNVQTEDEADYFCQSYSSGINIIFGGGTKLTVL
heavy, part: QVQLQESGPGLVQPSQTLSLTCTVSGFSLTTYDVHWVRQPPGKGLEWMGRIQNGGITDYNSALKSRLIISRDTSKSQVFLKMNSVQTEDTAMYFCAKTGSYFYAFDHWGQGTLVTVSS
B8 registered an EC50 [ng/ml] geomean, cytotoxic assay on THP-1 in test [4] of 12.2 ng/mL. In addition, the % FITC positive Cells in test [5] came out at 31.6%; in test [6], 99%.

B9: CODV-Fab BFX-3B10-E6 × CD3 (bispecific antibody, part only; not given: CD3 arm, linkers, constant domains, part only)
light, part: DVLMTQTPVSLPVSLGGQVSISCRSSQSLVHSDGDTYLHWYLQKPGQSPQLLIYRVSNRFSGVPDRFSGSGSGTDFTLKISRVEPEDLGLYYCLQTTHFPPWTFGGGTKLEMK
heavy, part: QVQLQQSGPELRRPGSSVRLSCKASGYRIKDFLIHWIKNRPEHGLEWIGWIDPEDGETKYAQKFQTKATLTADTSSNTAYMQLSSLTSEDTATYFCARWGDVYYGLMRGHVMDAWGQGTSVTVSS
On to B9, for which, in test [4], the EC50 [ng/ml] geomean, cytotoxic assay on THP-1 is 429 ng/mL.

B10: CODV-Fab BFX-6B10-E4 × CD3 (bispecific antibody, part only; not given: CD3 arm, linkers, constant domains, part only)
light, part: NIVMTQSPKSMSISVGDRVTMNCKASQTVGNNIAWYQQKPGLSPQLLIDYASNRYTGVPNRFTGGGYGTDFILTINSVQAEDAAFYYCQRMYNSPTFGGGTKLELK
heavy, part: EVQLVESGGGLVQPGRSLKLSCAASGFTFSHYNMAWVRQAPKKGLEWVATITYDDHSTYYRDSVKGRFTISRDTAKSTLYLQMDSLRSEDTATYYCARLVNYAFAYWGQGTLVTVSS
For B10, the EC50 [ng/ml] geomean, cytotoxic assay on THP-1 in test [4] was 39.7 ng/mL.

B11: CODV-Fab BFX-2B8-F3 × CD3 (bispecific antibody, part only; not given: CD3 arm, linkers, constant domains, part only)
light, part: EIVLTQSPTSMTASPGEQVTITCRASSSINYMHWYQQKPGASPRPWIYETSKLASGVPDRFSGSASGTSYSLTINNMEAEDAATYYCQQWNYPSWTFGGGTKLELK
heavy, part: EVQLVESGGGLVQPGRSLKLSCAASGFTFSDYNMAWVRQAPKKGLEWVATILYDGGRTYYRGSVKGRFTISRDNAKSTLYLRMDSLRSEDTATYYCATHSRGTDYFDYWGQGVMVTVSS
In turn, B11 showed an EC50 [ng/ml] geomean, cytotoxic assay on THP-1 in test [4] of 107 ng/mL.

B12: CODV-Fab BFX-9B8-G6 × CD3 (bispecific antibody, part only; not given: anti-CD3 arm, linkers, constant domains, V domains shown, not shown: another chain or arm of the molecule; a dimerising Fc or GST; small tags and cut ends)
VL: DIVMTQSPSSLAVSAGETVTINCKSSQSFLSSGDERNYVAWYQHKPGQSPKLLIYWASTRHSGVPDRFIGSGSGTDFTLTISSVQAEDLAIYYCQQYYDTPLTFGSGTKLEIK
VH: EVKLQESGPSLVQSSQTLSLTCTVSGFSLTSYHIHWVRQPPGKGLEWMGVMWSDGDTSYSSALKSRLSISRDTSQSQVFLKMNSLQTEDTATYYCARGDYSSYIYLWFAYWGQGTLVTVSS
With B12, in test [4], the EC50 [ng/ml] geomean, cytotoxic assay on THP-1 was 106 ng/mL. The % FITC positive Cells in test [5] is 31.1%; in test [6], 48.8%.

B13: CODV-Fab BFX-9D7-C8 × CD3 (bispecific antibody, part only; not given: anti-CD3 arm, linkers, constant domains, V domains shown, not shown: another chain or arm of the molecule; a dimerising Fc or GST; small tags and cut ends)
VL: DIVMTQSPSSLAVSEGETVTINCKSSQSFLSSGDGKNYVAWYQYKPGQSPKLLIYWASTRQSGVPDRFIGSGSGTDFTLTISTVQAEDLAIYYCQQYYDTPLTFGSGTKLEIK
VH: EVKLQESGPSLVQSSQTLSLTCTVSGFSLTSYHIHWVRQTPGKGLEWMGVMWSDGDTSYNSALKSRLSISRDTSQSQVFLKMNSLQTEDTATYYCARGYYSSYLYLWFAYWGQGTLVTVSS
Molecule B13 returned an EC50 [ng/ml] geomean, cytotoxic assay on THP-1 in test [4] of 86.3 ng/mL. The % FITC positive Cells in test [5] is 50.2%; in test [6], 88.7%.

B14: CODV-Fab BFX-2F8-D6 × CD3 (bispecific antibody, part only; not given: anti-CD3 arm, linkers, constant domains, V domains shown, not shown: another chain or arm of the molecule; a dimerising Fc or GST; small tags and cut ends)
VH: QVQLKESGPGLVQPSQTLSLTCTVSGFSLTSYGVSWVRQPPGKGLEWIATISSAGSTYYDLVLKSRLSITRDTSKSQVFLKVHSLQTEDTAIYLCARDAPVFNYGSYNAMDSWGQGTSVTVSS
VL: DIQMTQSPSFLSATVGDRVTINCKASQNINKYLNWYQQKLGEAPKRLIYNTNSLQTGIPSRFSGSGSGTDYTLTISSLQPEDVATYFCLQHKSGLTFGSGTKLEIK
Regarding B14, the figures for the % FITC positive Cells in test [5] and in test [6] were 9.3% and 24%, respectively.
